Data taken from patent US20220193133A1 (CENTURY THERAPEUTICS, published 2022).
Changes are numbered by the printed parent chain. Like-named read-outs stand apart in the source and are kept apart here.

T1: human lysozyme (human, UniProt P61626 19-148, biotinylated)
T1 construct: also called human lysozyme protein
T1 sequence (looked up): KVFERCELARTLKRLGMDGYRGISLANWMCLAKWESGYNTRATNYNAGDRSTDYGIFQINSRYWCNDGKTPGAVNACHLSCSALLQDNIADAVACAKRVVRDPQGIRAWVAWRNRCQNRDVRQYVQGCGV

B1: huD04_CNTY1_B12 anti-idiotype VHH (periplasmic extract) (VHH)
VHH: EVQLLESGGGLVQPGGSLRLSCAASGRTSSNYVMGWYRQAPGKEREGVSAITSGGSTYYADSVKGRFTISRDNSKNTLYLQMNSLRAEDTAVYYCAANLYSRTGAYDYWGQGTQVTVSS
notes: Screened as periplasmic extract; also called VHH of AMD82
B2: huD04_CNTY1_D10 anti-idiotype VHH (periplasmic extract) (VHH)
VHH: EVQLLESGGGLVQPGGSLRLSCAASGRTSSNYVIGWYRQAPGKEREFVSAISGGGSTYYADSVKGRFTISRDNSKNTLYLQMNSLRAEDTAVYYCATRIYTARGAGDYWGQGTQVTVSS
notes: Screened as periplasmic extract; also called VHH of AMD88
B3: huD04_CNTY1_D12 anti-idiotype VHH (periplasmic extract) (VHH)
VHH: B1 VHH with R27F, T52S, G54S, S56R, N98A, L99Y, R102G, T103Y, A105E, Y106T
notes: Screened as periplasmic extract; also called VHH of AMD86
B4: humanized B11 VHH CAR (hyLYSO_CW_P01_B11) on Nurkat cells (other, not shown: small tags and cut ends)
chain: EVQLLESGGGLVQPGGSLRLSCAASGGIFSGGRMGWFRQAPGKEREFVAAVITRGGSTYYADSVKGRFTISRDNSKNTLYLQMNSLRAEDTAVYYCAASEVTYDEGRYIGTKSTYDTWGQGTQVTVSS
notes: also called B11 (p1649); P1649
B5: huD04_CNTY1_D11 anti-idiotype VHH (periplasmic extract) (VHH)
VHH: EVQLLESGGGLVQPGGSLRLSCAASGSTFSYYYMGWYRQAPGKERELVSAISSGGSIYYADSVKGRFTISRDNSKNTLYLQMNSLRAEDTAVYYCARRTYYGDEADYWGQGTQVTVSS
notes: Screened as periplasmic extract; also called VHH of AMD87
B6: AMD77 (huD04_CNTY1_A11 anti-idiotype VHH IgG1-Fc fusion) (Fc fusion)
VHH: EVQLLESGGGLVQPGGSLRLSCAASGFTSSNYVMGWYRQAPGKEREFVSAIGSGGSTYYADSVKGRFTISRDNSKNTLYLQMNSLRAEDTAVYYCAAEIYTSGARDYWGQGTQVTVSS
modifications: Biotinylated in the FIG. 18 and FIG. 19 assays; the biotin sites are not stated.
notes: not shown: IgG1 Fc (and any hinge or linker to it)
B7: AMD88 (huD04_CNTY1_D10 anti-idiotype VHH IgG1-Fc fusion) (Fc fusion)
chain: B2 VHH
notes: not shown: IgG1 Fc
B8: p253 (other)
CAR: QVQLVESGGGLVQAGGSLRLSCAASGSSFSIYDVGWFRQAPGKEREFVAATIETGGHTSYADSVKGRFTISRDNAKNTVYLQMNSLKPEDTAVYYCYAKIVYDQGPSYYYWGQGTQVTVSS
B9: huB11_CNTY1_E11 anti-idiotype VHH (periplasmic extract) (VHH)
VHH: EVQLLESGGGLVQPGGSLRLSCAASGFAFSDYVMGWYRQAPGKEREFVSAIRSTTSTYYADSVKGRFTISRDNSKNTLYLQMNSLRAEDTAVYYCAADVWSGYEYDYWGQGTQVTVSS
notes: Screened as periplasmic extract; also called VHH of AMD75
B10: huB11_CNTY1_B11 anti-idiotype VHH (periplasmic extract) (VHH)
VHH: B9 VHH with F27L, D31S, V33A, A50V, R52S, S53G, T55G, S56E, Y58L
notes: Screened as periplasmic extract; also called VHH of AMD76
B11: p248 (other)
CAR: QVQLVESGGGLVQAGGSLRLSCAASGSIFSFYDVGWFRQAPGKEREFVAASITKGGGTYYVDSVKGRFTISRDNAKNTVYLQMNSLKPEDTAVYYCALATPHGYDFWGQGTQVTVSS
B12: humanized D04 VHH CAR (hyLYSO_CW_P01_D04) on Nurkat cells or primary T cells (other, not shown: small tags and cut ends)
chain: EVQLLESGGGLVQPGGSLRLSCAASGRIFSIYDTIGWFRQAPGKEREFVAATITTAGITTYDDSVKGRFTISRDNSKNTLYLQMNSLRAEDTAVYYCYVRVGRGDYWGQGTQVTVSS
notes: also called D04 (p1648); P1650

Assays:
[1] = target: T2, B11 protein (humanized B11 VHH as ELISA antigen); test: periplasmic extract ELISA, absorbance 450 nm, single point
T2 construct: Panning used B11-Fc; the ELISA legend says only 'B11 protein'

[2] = target: T3, D04 protein (humanized D04 VHH as ELISA antigen); test: as above
T3 construct: Panning used biotinylated D04-Fc; the ELISA legend says only 'D04 protein'

[3] = target: T4, chicken lysozyme (Hen Egg Lysozyme) (chicken, UniProt P00698 19-147, biotinylated); test: flow cytometry, CAR Nurkat cells + biotinylated HEL, streptavidin-APC, % positive cells
T4 construct: also called HEL; chicken egg white lysozyme

[4] = target: T5, D04-his tagged VHH (humanized D04); test: Octet (BLI), anti-idiotype VHH-Fc vs his-tagged VHH; table title prints B11-his, paragraph 353 ties these values to D04
T5 construct: also called LysoD04.His; D04 his-tagged protein

[5] = target: total human IgG from sera; test: Octet (BLI) specificity analysis, sample vs analyte
Fc-y fragment = test: as above
[6] = target: T6, D04-Fc (humanized D04 VHH Fc fusion); test: as above
T6 construct: also called LysoD04.Fc; not shown: Fc

[7] = target: T5, D04-his tagged VHH (humanized D04); test: as above
[8] = target: PROT939 (an off target VHH-fc soluble); test: as above
[9] = target: the molecule itself; test: as above
[10] = target: B4; test: flow cytometry, VHH-Fc on CAR Nurkat cells, 3-fold dilutions 50 to 0.02 nM, anti-Fc APC, %Fc positive cells
From the text: […] Fc-fusion protein was detected via anti-Fc APC, and the percentage of cells that were positive for this detection method are shown. […] Controls include (i) no VHH-Fc added and (ii) the anti-VHH cocktail detection reagent (far right). The samples shown in the graphs for each protein appear in the order as specified in the legend.

[11] = target: T7, B11-his tagged VHH (humanized B11); test: Octet (BLI), anti-idiotype VHH-Fc vs his-tagged VHH; table title prints D04-his, its footnote prints B11-his
T7 construct: also called B11-his protein; B11 his-tagged protein

[12] = target: T4, chicken lysozyme (Hen Egg Lysozyme); test: flow cytometry, CAR Jurkat cells + 10 ug/mL biotinylated lysozyme, streptavidin-APC, % positive cells
human lysozyme = target: T1, human lysozyme; test: as above
[13] = target: T3, D04 protein (humanized D04 VHH as ELISA …); test: periplasmic extract ELISA, absorbance 450 nm, single point; remark: listed apart in the source
[14] = target: T2, B11 protein (humanized B11 VHH as ELISA …); test: as above; remark: listed apart in the source

T4 sequence (P00698 19-147): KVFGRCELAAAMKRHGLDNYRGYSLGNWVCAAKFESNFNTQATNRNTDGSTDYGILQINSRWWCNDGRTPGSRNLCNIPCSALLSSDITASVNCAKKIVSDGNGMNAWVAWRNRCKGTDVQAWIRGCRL

Binder: B1
binding result [1]: no binding

Binder: B2
binding result [1]: no binding

Binder: B3
binding result [2]: binds
binding result [1]: no binding

Binder: B4
binding result [3]: binds

Binder: B5
binding result [1]: no binding

Binder: B6
Kd [4]: 2.08 nM
Response [4]: 0.497
koff [4]: 0.00145 s⁻¹
kon [4]: 696000 M⁻¹ s⁻¹
Response [5]: -0.0155
Response (Fc-y fragment): -0.009
Response [6]: 2.67
Response [7]: 0.337
Response [8]: -0.0053

Binder: B7
Kd [4]: 72.3 nM
Response [4]: 0.289
koff [4]: 0.0425 s⁻¹
kon [4]: 588000 M⁻¹ s⁻¹
Response [5]: -0.0338
Response (Fc-y fragment): -0.0261
Response [6]: 2.18
Response [7]: 0.0923
Response [8]: -0.024
Response [9]: 0.149
binding result [10]: no binding (tested: 50 nM)
Response [11]: -0.0183

Binder: B8
binding result [12]: binds
binding result (human lysozyme): no binding (tested: 10 ug/mL)

Binder: B9
binding result [13]: no binding

Binder: B10
binding result [13]: no binding
binding result [14]: binds

Binder: B11
binding result [12]: no binding (tested: 10 ug/mL)
binding result (human lysozyme): no binding (tested: 10 ug/mL)

Binder: B12
binding result [3]: binds
